Results on 2 molecules are retold here after US20250011388A1 (MONASH UNIVERSITY, published 2025).

B1: MonoCTLA4-Ig (Fc fusion)
chain: MHVAQPAVVLASSRGIASFVCEYASPGKATEVRVTVLRQADSQVTEVCAATYMMGNELTFLDDSICTGTSSGNQVNLTIQGLRAMDTGLYICKVELMYPPPYYLGIGNGTQIYVIAKEKKPSYNRGLCENAPNRARMQEPKSSDKTHTSPPSPAPELLGGSSVFLFPPKPKDTLMISRTPEVTCVVVDVSHEDPEVKFNWYVDGVEVHNAKTKPREEQYNSTYRVVSVLTVLHQDWLNGKEYKCKVSNKALPAPIEKTISKAKGQPREPQVYTLPPSRDELTKNQVNLTCLVKGFYPSDIAVEWESNGQPENNYKTTPPVLDSDGSFFLNSTLTVDKSRWQQGNVFSCSVMHEALHNHYTQKSLSLSPGK
notes: not shown: C-terminal FLAG tag
B2: human CD80 (hCD80) expressed on CHO cells (ligand, UniProt P33681 35-288, looked up)
chain: VIHVTKEVKEVATLSCGHNVSVEELAQTRIYWQKEKKMVLTMMSGDMNIWPEYKNRTIFDITNNLSIVILALRPSDEGTYECVVLKYEKDAFKREHLAEVTLSVKADFPTPSISDFEIPTSNIRRIICSTSGGFPEPHLSWLENGEELNAINTTVSQDPETELYAVSSKLDFNMTTNHSFMCLIKYGHLRVNQTFNWNTTKQEHFPDNLLPSWAITLISVNGIFVICCLTYCFAPRCRERRRNERLRRESVRPV
notes: whole, on cells; In most assays co-expressed with human PDL1 on the same CHO cell (cis-CD80:PDL1 clones, e.g. clone 12); also called B7-1; cis-CD80:PDL1 cells

For assay [1], the target named is B2. Put plainly: flow cytometry, anti-hIgG1 staining, cis-CD80:PDL1 CHO cells. In general terms: Flow cytometry measures light scatter and fluorescence of single cells or particles in a stream.
Procedure: After washing to remove excess fusion protein and antibody, cell pellets were resuspended in 100 μL of FACS buffer (PBS with 10% FCS). Flow cytometry was performed on viable cells (based on SSC/FSC) using a BD LSRII or LSRFortessa (BD Biosciences), and cell sorting was performed using a BD Influx (BD Biosciences) with a 100 μm nozzle. […] All antibodies were used at a final dilution of 1:200 from stock.
In assay [2] the target is T1, human PDL1 (hPDL1) expressed on CHO cells (human, UniProt Q9NZQ7 19-290).
T1 construct: whole, on cells; Expressed alone (parental PDL1 clone) or with CD80 (cis-CD80:PDL1 clones)
Briefly: flow cytometry, CHO cells co-expressing human CD80 and PDL1 (cis interaction).

T1 sequence (Q9NZQ7 19-290): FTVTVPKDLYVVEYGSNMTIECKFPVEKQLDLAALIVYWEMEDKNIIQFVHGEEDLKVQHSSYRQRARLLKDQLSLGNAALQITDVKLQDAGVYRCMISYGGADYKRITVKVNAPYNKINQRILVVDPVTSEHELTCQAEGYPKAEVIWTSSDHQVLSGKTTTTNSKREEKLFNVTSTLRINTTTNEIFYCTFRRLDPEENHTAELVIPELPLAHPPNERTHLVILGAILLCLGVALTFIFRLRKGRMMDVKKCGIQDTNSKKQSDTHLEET

As for B1, the binding result in assay [1] is reported as “binds”.
In the case of B2, in assay [2], the binding result was “binds”.
